Measured values: patent US20130261012A1 (published 2013)

Target: S3
Experiment: apparent affinity of recombinant chimeric mAb, cell binding

Kd: > 40 nM
B1: FZD10 (receptor)
chain: ISSMDMERPGDGKCQPIEIPMCKDIGYNMTRMPNLMGHENQREAAIQLHEFAPLVEYGCHGHLRFFLCSLYAPMCTEQVSTPIPACRVMCEQARLKCSPIMEQFNFKWPDSLDCRKLPNKNDPNYLCMEAPNNGSDEPTRGSGLFPPLFRPQRPHSAQEHPLKDGGPGRGGCDNPGKFHHVEKSASCAPLCTPGVDVYWSREDKRFAVVWLAIWAVLCFFSSAFTVLTFLIDPARFRYPERPIIFLSMCYCVYSVGYLIRLFAGAESIACDRDSGQLYVIQEGLESTGCTLVFLVLYYFGMASSLWWVVLTLTWFLAAGKKWGHEAIEANSSYFHLAAWAIPAVKTILILVMRRVAGDELTGVCYVGSMDVNALTGFVLIPLACYLVIGTSFILSGFVALFHIRRVMKTGGENTDKLEKLMVRIGLFSVLYTVPATCVIACYFYERLNMDYWKILAAQHKCKMNNQTKTLDCLMAASIPAVEIFMVKIFMLLVVGITSGMWIWTSKTLQSWQQVCSRRLKKKSRRKPASVITSGGIYKKAQHPQKTHHGKYEIPAQSPTCV
